US20110009311A1 (US Dept. of Health and Human Services, published 2011)
Where no end group is shown, it is not given here.

B1: thrombospondin-1 (TSP1), calcium replete, purified from human platelets (ligand)
chain: not shown
B2: MBP-invasin fusion protein (ligand)
chain: AVIGDGAPANGKTAITVEFTVADFEGKPLAGQEVVITTNNGALPNKITEKTDANGVARIALTNTTDGVTVVTAEVEGQRQSVDTHFVKGTIAADKSTLAAVPTSIIADGLMASTITLELKDTYGDPQAGANVAFDTTLGNMGVITDHNDGTYSAPLTSTTLGVATVTVKVDGAAFSVPSVTVNFTADPIPDAGRSSFTVSTPDILADGTMSSTLSFVPVDKNGHFISGMQGLSFTQNGVPVSISPITEQPDSYTATVVGNTAGDVTITPQVDTLILSTLQKKISLFPVPTLTGILVNGQNFATDKGFPKTIFKNATFQLQMDNDVANNTQYEWSSSFTPNVSVNDQGQVTITYQTYSEVAVTAKSKKFPSYSVSYRFYPNRWIYDGGTSLVSSLEASRQCQGSDMSAVLESSRATNGTRAPDGTLWGEWGSLTAYSSDWQSGEYWVKKTSTDFETMNMDTGALVQGPAYLAFPLCALAI

What was measured:
[1] = biological target: T1, α3β1 integrin (endogenous on human cells: MDA-MB-435 breast carcinoma, HUVEC, HDME, OH-1 SCLC) (human, UniProt P26006 33-1051; P05556 21-798); experiment: soluble peptide, inhibition of MDA-MB-435 cell adhesion to immobilized peptide 678
T1 construct: whole, on cells; never purified, always the integrin on whole cells in adhesion, spreading or proliferation assays; also called alpha3 beta1 integrin

[2] = biological target: T1, α3β1 integrin (endogenous on human …); experiment: cell-based or functional assay
[3] = biological target: T1, α3β1 integrin (endogenous on human …); experiment: cell-based or functional assay; remark: listed apart in the source
[4] = biological target: T1, α3β1 integrin (endogenous on human …); experiment: cell-based or functional assay; remark: listed apart in the source
[5] = biological target: T1, α3β1 integrin (endogenous on human …); experiment: direct MDA-MB-435 cell adhesion to adsorbed peptide (FIG. 8)
[6] = biological target: T1, α3β1 integrin (endogenous on human …); experiment: MDA-MB-435 cell adhesion and inhibition of adhesion (FIG. 3A and results not shown)

T1 sequence (P26006 33-1051, chain 1 of 2): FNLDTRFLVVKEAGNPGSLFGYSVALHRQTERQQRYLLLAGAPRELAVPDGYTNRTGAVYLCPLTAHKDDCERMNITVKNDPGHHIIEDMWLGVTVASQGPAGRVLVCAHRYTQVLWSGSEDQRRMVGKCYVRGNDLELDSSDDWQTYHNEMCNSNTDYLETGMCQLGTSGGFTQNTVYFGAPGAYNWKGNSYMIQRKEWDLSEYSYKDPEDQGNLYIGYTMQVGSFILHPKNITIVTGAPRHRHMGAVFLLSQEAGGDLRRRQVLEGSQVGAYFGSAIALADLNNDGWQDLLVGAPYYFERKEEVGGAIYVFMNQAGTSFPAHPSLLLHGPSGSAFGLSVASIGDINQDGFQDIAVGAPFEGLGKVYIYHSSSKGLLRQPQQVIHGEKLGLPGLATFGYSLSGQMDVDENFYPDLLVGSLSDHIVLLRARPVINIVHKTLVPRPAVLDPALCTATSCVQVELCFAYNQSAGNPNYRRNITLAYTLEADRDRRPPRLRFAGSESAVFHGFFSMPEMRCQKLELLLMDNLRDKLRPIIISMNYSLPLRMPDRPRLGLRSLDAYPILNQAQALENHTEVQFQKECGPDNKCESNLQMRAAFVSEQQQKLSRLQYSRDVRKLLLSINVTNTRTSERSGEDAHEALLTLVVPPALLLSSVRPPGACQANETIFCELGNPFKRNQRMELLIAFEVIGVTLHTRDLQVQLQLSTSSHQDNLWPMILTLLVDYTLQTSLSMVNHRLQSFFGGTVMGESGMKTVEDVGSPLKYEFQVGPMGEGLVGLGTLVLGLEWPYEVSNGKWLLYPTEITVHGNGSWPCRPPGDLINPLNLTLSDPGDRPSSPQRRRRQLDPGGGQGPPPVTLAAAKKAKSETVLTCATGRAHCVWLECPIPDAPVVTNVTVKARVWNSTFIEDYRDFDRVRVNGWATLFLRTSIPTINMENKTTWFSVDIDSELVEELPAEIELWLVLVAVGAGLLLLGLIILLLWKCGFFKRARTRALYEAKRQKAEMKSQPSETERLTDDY
T1 sequence (P05556 21-798, chain 2 of 2): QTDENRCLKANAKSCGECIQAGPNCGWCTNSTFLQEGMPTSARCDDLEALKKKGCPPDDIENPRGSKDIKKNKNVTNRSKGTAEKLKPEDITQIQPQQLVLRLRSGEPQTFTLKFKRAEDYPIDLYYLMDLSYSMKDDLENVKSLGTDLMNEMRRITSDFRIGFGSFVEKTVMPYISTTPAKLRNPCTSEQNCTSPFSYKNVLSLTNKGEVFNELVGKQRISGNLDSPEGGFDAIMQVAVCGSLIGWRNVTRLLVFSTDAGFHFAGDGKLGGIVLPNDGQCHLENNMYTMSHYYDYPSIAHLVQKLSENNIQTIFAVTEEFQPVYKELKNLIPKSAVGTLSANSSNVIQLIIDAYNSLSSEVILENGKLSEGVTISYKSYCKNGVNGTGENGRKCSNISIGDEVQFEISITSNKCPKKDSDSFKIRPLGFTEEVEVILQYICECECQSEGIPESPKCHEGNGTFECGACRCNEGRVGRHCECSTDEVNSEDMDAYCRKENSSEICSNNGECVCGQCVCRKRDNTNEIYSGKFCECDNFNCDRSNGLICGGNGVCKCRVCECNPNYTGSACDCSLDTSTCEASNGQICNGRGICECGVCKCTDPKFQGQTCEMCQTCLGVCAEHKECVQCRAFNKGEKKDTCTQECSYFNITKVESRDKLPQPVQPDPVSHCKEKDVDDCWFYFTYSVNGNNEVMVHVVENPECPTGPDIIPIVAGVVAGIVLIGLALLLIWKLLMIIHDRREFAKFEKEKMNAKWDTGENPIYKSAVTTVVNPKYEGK

Row | Binder | IC50, inhibition of MDA-MB-435 cell adhesion to immobilized peptide 678 (microscopic adhesion assay) [2] [µM] | IC50 (µM), inhibition of MDA-MB-435 cell adhesion to immobilized peptide 678 [3] [µM] | IC50, inhibition of MDA-MB-435 cell adhesion to immobilized peptide 678 (hexosaminidase method) [2] [µM] | other results
1 | QGVLQNVR [peptide 683] | > 300 | – | – | binding result [1]: no binding (tested: >300 µM)
2 | FQGVLANVRFVF [peptide 687] | 3 | 3 | – | –
3 | AQGVLQNVRFVF [peptide 697] | 5 | 5 | – | –
4 | FQGVLQNLRFVF [peptide 719] | – | – | 16 | –
5 | LQNVRFVF [peptide 684] | 300 | – | – | –
6 | Ac-LQNVRF-NH2 [peptide 681] | 500 | – | – | –
7 | Ac-QGVLQNVRF [peptide 704] | 15 | – | ~100 | –
8 | QGVLQNVRFVF [peptide 685] | 24 | – | – | –
9 | FQGVLQNVRFVF [TSP1 peptide 678] | 3.5 | 3.5 | 15 | IC50, inhibition of OH-1 SCLC cell proliferation by soluble peptide [4]: 6 µM
10 | FQGVLQNVAFVF (also called control peptide 690) [peptide 690] | > 300 | > 300 | – | binding result [5]: no binding (tested: adsorbed at 10 µM)
11 | FQGVLQNVRFVA [peptide 693] | 27 | 27 | – | –
12 | FQGVLQNVRF [peptide 682] | 6 | – | – | –
13 | FQGVLQDVRFVF [peptide 718] | – | – | 12 | –
14 | FRGCVRNLRLSR [laminin peptide 679] | – | – | 700 | –
15 | FQGVLQSVRFVF [peptide 705] | – | – | 15 | –
16 | FQGVLQNVRAVF [peptide 692] | 18 | 18 | – | –
17 | FQGVLQNVHFVF [peptide 694] | 54 | 54 | – | –
18 | FQGVLQQVRFVF [peptide 717] | – | – | 30 | –
19 | B1 | – | – | – | IC50, inhibition of OH-1 SCLC cell proliferation by soluble protein [4]: 0.04 µM
20 | VLQNVRFVF [peptide 688] | > 100 | – | – | –
21 | TPGQVRTLWHDP (also called (part of C6)) [TSP1 peptide 701] | > 300 | – | – | binding result [6]: no binding
22 | FQGVLQNVKFVF [peptide 702] | 6 | 6 | 25 | –
23 | FQGVLNNVRFVF [peptide 698] | 3 | – | – | –
24 | FQGVAQNVRFVF [peptide 695] | 5 | 5 | – | –
25 | B2 | – | – | – | IC50, inhibition of OH-1 SCLC cell proliferation by soluble protein [4]: 0.08 µM
26 | KQNCLSSRASFRGCVRNLRLSR [murine laminin-1 peptide GD6] | – | – | – | IC50, inhibition of MDA-MB-435 cell adhesion to peptide 678, GD6 or TSP1 by the soluble laminin peptide (data not shown) [4]: 700 µM
27 | FAGVLQNVRFVF [peptide 696] | 1.8 | 1.8 | 12 | –
